According to publication doi:10.1101/2020.02.01.930206 (bioRxiv, 2020):

Experiments:
[1] = biological target: T1, Drosophila melanogaster CIAO1 (Drosophila melanogaster, UniProt Q7K1Y4 1-335); assay: crystal structure
T1 sequence: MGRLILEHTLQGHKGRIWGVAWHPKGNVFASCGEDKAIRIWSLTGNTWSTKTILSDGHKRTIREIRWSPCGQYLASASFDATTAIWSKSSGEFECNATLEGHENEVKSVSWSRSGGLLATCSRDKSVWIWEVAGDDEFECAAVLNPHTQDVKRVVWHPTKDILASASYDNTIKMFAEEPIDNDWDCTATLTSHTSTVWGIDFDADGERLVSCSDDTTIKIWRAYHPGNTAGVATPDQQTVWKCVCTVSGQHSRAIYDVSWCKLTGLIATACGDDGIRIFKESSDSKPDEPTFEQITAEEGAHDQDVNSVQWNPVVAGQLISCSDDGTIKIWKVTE

[2] = biological target: T2, full-length mouse MMS19 (mouse, UniProt Q9D071 1-1031); assay: crystal structure
T2 sequence: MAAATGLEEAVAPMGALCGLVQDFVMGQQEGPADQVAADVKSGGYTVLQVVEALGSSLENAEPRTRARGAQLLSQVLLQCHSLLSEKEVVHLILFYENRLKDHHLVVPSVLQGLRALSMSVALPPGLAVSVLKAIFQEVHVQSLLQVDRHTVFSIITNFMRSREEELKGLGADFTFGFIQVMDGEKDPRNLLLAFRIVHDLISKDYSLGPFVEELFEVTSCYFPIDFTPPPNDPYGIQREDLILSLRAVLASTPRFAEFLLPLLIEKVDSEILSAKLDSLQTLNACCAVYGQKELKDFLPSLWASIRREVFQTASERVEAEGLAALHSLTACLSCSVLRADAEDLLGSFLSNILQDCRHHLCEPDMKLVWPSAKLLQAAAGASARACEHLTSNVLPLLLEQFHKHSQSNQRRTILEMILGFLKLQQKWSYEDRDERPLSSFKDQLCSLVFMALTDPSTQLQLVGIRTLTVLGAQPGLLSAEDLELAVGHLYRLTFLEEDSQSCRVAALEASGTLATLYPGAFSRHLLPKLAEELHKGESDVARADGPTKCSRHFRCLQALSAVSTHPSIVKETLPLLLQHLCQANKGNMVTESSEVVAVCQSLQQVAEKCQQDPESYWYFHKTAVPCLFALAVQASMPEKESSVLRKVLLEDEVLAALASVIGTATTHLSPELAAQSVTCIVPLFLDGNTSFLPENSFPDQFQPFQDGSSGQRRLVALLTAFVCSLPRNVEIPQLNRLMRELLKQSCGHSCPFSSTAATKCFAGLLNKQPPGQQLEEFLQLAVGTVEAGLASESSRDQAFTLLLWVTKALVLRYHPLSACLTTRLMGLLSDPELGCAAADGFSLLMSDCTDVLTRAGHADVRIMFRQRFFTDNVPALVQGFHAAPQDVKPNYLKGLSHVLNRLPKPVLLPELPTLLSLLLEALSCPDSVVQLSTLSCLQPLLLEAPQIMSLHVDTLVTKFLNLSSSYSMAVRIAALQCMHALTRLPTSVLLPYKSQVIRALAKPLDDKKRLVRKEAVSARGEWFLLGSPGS

[3] = biological target: the molecule itself; assay: crystal structure
[4] = biological target: the molecule itself; assay: negative-stain electron microscopy
[5] = biological target: full-length human CIA targeting complex (MMS19-CIAO1-CIAO2B) (human, UniProt Q96T76;O76071;Q9Y3D0); assay: ITC
[6] = biological target: human MMS19^381-1030-CIAO1-CIAO2B complex (human, UniProt Q96T76;O76071;Q9Y3D0); assay: ITC
[7] = biological target: human CIAO1-CIAO2B core complex (human, UniProt O76071;Q9Y3D0); assay: ITC
Chain of human CIAO1-CIAO2B core complex (O76071 whole entry, one chain of several): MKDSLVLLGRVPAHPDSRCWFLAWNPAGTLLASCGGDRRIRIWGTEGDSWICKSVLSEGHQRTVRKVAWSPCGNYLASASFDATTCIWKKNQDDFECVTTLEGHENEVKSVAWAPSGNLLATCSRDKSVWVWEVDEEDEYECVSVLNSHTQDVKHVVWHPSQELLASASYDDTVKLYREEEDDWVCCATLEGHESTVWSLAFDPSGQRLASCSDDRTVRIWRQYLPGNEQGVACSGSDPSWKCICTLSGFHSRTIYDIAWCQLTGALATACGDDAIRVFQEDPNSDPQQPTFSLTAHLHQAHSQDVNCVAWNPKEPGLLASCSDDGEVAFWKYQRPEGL

Chain of human MMS19^381-1030-CIAO1-CIAO2B complex (O76071 whole entry, one chain of several): as above
Chain of full-length human CIA targeting complex (MMS19-CIAO1-CIAO2B) (O76071 whole entry, one chain of several): as above

B1: Drosophila melanogaster CIAO2B (natural protein)
chain: MPTEIENINPNVYDRIKERVLTANEEDENVPDPFDKREIFDLIRNINDPEHPLTLEELHVVQEDLIRINDSQNSVHISFTPTIPHCSMATLIGLSIRVKLLRSLPPRFKVTVEITPGTHASELAVNKQLADKERVAAALENNHLAEVINQCIAAKG
B1: binds [1]; binds [2]; binds [3].

B2: Drosophila melanogaster CIAO1-CIAO2B core complex (complex)
chain 1: MGRLILEHTLQGHKGRIWGVAWHPKGNVFASCGEDKAIRIWSLTGNTWSTKTILSDGHKRTIREIRWSPCGQYLASASFDATTAIWSKSSGEFECNATLEGHENEVKSVSWSRSGGLLATCSRDKSVWIWEVAGDDEFECAAVLNPHTQDVKRVVWHPTKDILASASYDNTIKMFAEEPIDNDWDCTATLTSHTSTVWGIDFDADGERLVSCSDDTTIKIWRAYHPGNTAGVATPDQQTVWKCVCTVSGQHSRAIYDVSWCKLTGLIATACGDDGIRIFKESSDSKPDEPTFEQITAEEGAHDQDVNSVQWNPVVAGQLISCSDDGTIKIWKVTE
chain 2: MPTEIENINPNVYDRIKERVLTANEEDENVPDPFDKREIFDLIRNINDPEHPLTLEELHVVQEDLIRINDSQNSVHISFTPTIPHCSMATLIGLSIRVKLLRSLPPRFKVTVEITPGTHASELAVNKQLADKERVAAALENNHLAEVINQCIAAKG
B2: binds [2].

B3: all-mouse CIA targeting complex (MmMMS19-MmCIAO1-CIAO2B) (complex)
chain 1: MAAATGLEEAVAPMGALCGLVQDFVMGQQEGPADQVAADVKSGGYTVLQVVEALGSSLENAEPRTRARGAQLLSQVLLQCHSLLSEKEVVHLILFYENRLKDHHLVVPSVLQGLRALSMSVALPPGLAVSVLKAIFQEVHVQSLLQVDRHTVFSIITNFMRSREEELKGLGADFTFGFIQVMDGEKDPRNLLLAFRIVHDLISKDYSLGPFVEELFEVTSCYFPIDFTPPPNDPYGIQREDLILSLRAVLASTPRFAEFLLPLLIEKVDSEILSAKLDSLQTLNACCAVYGQKELKDFLPSLWASIRREVFQTASERVEAEGLAALHSLTACLSCSVLRADAEDLLGSFLSNILQDCRHHLCEPDMKLVWPSAKLLQAAAGASARACEHLTSNVLPLLLEQFHKHSQSNQRRTILEMILGFLKLQQKWSYEDRDERPLSSFKDQLCSLVFMALTDPSTQLQLVGIRTLTVLGAQPGLLSAEDLELAVGHLYRLTFLEEDSQSCRVAALEASGTLATLYPGAFSRHLLPKLAEELHKGESDVARADGPTKCSRHFRCLQALSAVSTHPSIVKETLPLLLQHLCQANKGNMVTESSEVVAVCQSLQQVAEKCQQDPESYWYFHKTAVPCLFALAVQASMPEKESSVLRKVLLEDEVLAALASVIGTATTHLSPELAAQSVTCIVPLFLDGNTSFLPENSFPDQFQPFQDGSSGQRRLVALLTAFVCSLPRNVEIPQLNRLMRELLKQSCGHSCPFSSTAATKCFAGLLNKQPPGQQLEEFLQLAVGTVEAGLASESSRDQAFTLLLWVTKALVLRYHPLSACLTTRLMGLLSDPELGCAAADGFSLLMSDCTDVLTRAGHADVRIMFRQRFFTDNVPALVQGFHAAPQDVKPNYLKGLSHVLNRLPKPVLLPELPTLLSLLLEALSCPDSVVQLSTLSCLQPLLLEAPQIMSLHVDTLVTKFLNLSSSYSMAVRIAALQCMHALTRLPTSVLLPYKSQVIRALAKPLDDKKRLVRKEAVSARGEWFLLGSPGS
chain 2: not shown
chain 3: MVGGGGSGGGLLENANPLIYERSGERPVTAGEEDEEVPDSIDAREIFDLIRSINDPEHPLTLEELNVVEQVRIQVSDPESTVAVAFTPTIPHCSMATLIGLSIKVKLLRSLPQRFKMDVHITPGTHASEHAVNKQLADKERVAAALENTHLLEVVNQCLSARS
B3: binds [4].

B4: human primase (PriL-PriS heterodimer) (complex)
chain 1: MEFSGRKWRKLRLAGDQRNASYPHCLQFYLQPPSENISLIEFENLAIDRVKLLKSVENLGVSYVKGTEQYQSKLESELRKLKFSYRENLEDEYEPRRRDHISHFILRLAYCQSEELRRWFIQQEMDLLRFRFSILPKDKIQDFLKDSQLQFEAISDEEKTLREQEIVASSPSLSGLKLGFESIYKIPFADALDLFRGRKVYLEDGFAYVPLKDIVAIILNEFRAKLSKALALTARSLPAVQSDERLQPLLNHLSHSYTGQDYSTQGNVGKISLDQIDLLSTKSFPPCMRQLHKALRENHHLRHGGRMQYGLFLKGIGLTLEQALQFWKQEFIKGKMDPDKFDKGYSYNIRHSFGKEGKRTDYTPFSCLKIILSNPPSQGDYHGCPFRHSDPELLKQKLQSYKISPGGISQILDLVKGTHYQVACQKYFEMIHNVDDCGFSLNHPNQFFCESQRILNGGKDIKKEPIQPETPQPKPSVQKTKDASSALASLNSSLEMDMEGLEDYFSEDS
chain 2: METFDPTELPELLKLYYRRLFPYSQYYRWLNYGGVIKNYFQHREFSFTLKDDIYIRYQSFNNQSDLEKEMQKMNPYKIDIGAVYSHRPNQHNTVKLGAFQAQEKELVFDIDMTDYDDVRRCCSSADICPKCWTLMTMAIRIIDRALKEDFGFKHRLWVYSGRRGVHCWVCDESVRKLSSAVRSGIVEYLSLVKGGQDVKKKVHLSEKIHPFIRKSINIIKKYFEEYALVNQDILENKESWDKILALVPETIHDELQQSFQKSHNSLQRWEHLKKVASRYQNNIKNDKYGPWLEWEIMLQYCFPRLDINVSKGINHLLKSPFSVHPKTGRISVPIDLQKVDQFDPFTVPTISFICRELDAISTNEEEKEENEAESDVKHRTRDYKKTSLAPYVKVFEHFLENLDKSRKGELLKKSDLQKDF
B4 showed a Kd [5] of 35 nM and a Kd [6] of 508 nM.

B5: human primase small subunit PriS (natural protein)
chain: METFDPTELPELLKLYYRRLFPYSQYYRWLNYGGVIKNYFQHREFSFTLKDDIYIRYQSFNNQSDLEKEMQKMNPYKIDIGAVYSHRPNQHNTVKLGAFQAQEKELVFDIDMTDYDDVRRCCSSADICPKCWTLMTMAIRIIDRALKEDFGFKHRLWVYSGRRGVHCWVCDESVRKLSSAVRSGIVEYLSLVKGGQDVKKKVHLSEKIHPFIRKSINIIKKYFEEYALVNQDILENKESWDKILALVPETIHDELQQSFQKSHNSLQRWEHLKKVASRYQNNIKNDKYGPWLEWEIMLQYCFPRLDINVSKGINHLLKSPFSVHPKTGRISVPIDLQKVDQFDPFTVPTISFICRELDAISTNEEEKEENEAESDVKHRTRDYKKTSLAPYVKVFEHFLENLDKSRKGELLKKSDLQKDF
For B5, the Kd [7] was 3100 nM.
